{"source": "the DeepSol protein solubility set", "data": [{"test": "soluble on expression in E. coli; label from the status in PepcDB or PDB records", "values": [{"sequence": "MGSDKIHHHHHHMLEIVAFRGDEYGLSARILADFLDEFRIHEMSPDNFNGKEEIENDFIIVCNPKLLTENFLRQAYEYSRDRGIYFGVISALSIDLLREKLANYQEQISLDPQQYLIILRKENKSIKHRLNAEVFTRYESTVDNFDRVKHKKLCLSMVIDGNRRHLHLSDGKICGINRDIPLEEIYRYFPDCQNCEYERVYAQDVQAECIFMDSCSSTLISTSEKGEYINVGMNFLKNAKVLISSYRPKQGYNSEALLFHHLISHGFEAGEVLYILNTNSYNHCSDYLPYILYGFPNAKVTIPEKLEVDRLRMGKSEIVLEIDRIAGMRLLEIHAGEDILNEVLKRQFYVFSSDEIRKDVFYSVIPYPLKNSIKLFLYSWEEVNGPLRIVFGVGKRLREDVYSKRYFNMRKLELLGFRHKKIQNQVHDYFSKINEQTEVLDEANRNLKNFDLHRLSKNLSAVEERIYNLLADHLLSQNPKFFIEVYGENMTVRCAEEDLHKTIRCPYCGNYLSIKESENTLVPMKRYSGFCSNCHNVFDTESVHPPKYPEIVLVHEQPDRKIFYVKVWNENAHTTNNLVCFNLWCENRSEMENIYLSRDFQVFTLEPGGEEKFEVEVALKRTDQRINKTYCLYVYWFEDFNLSVSTYTFRLKNV", "soluble on expression in E. coli": "not soluble"}, {"sequence": "MAEAKQWDVKQLDRIVEKMIDTVQHSKDEIFRIGEQSRQEHDHLLRELEEVKRLTVQAIEEADQLEMKARQARRRLSEVSQNFSTHSEQDIREAYEQAHELHMKLTMVREREKQLRLRRDELERRLASLAQIIERADYLVGQITVVLHYLNSDFRQVGELIEGAKQKQEFGLKIIEAQEEERRRLSREIHDGPAQLLAHVLLRSDLVEKVIKERGTEAAIAEIRDFRKMVRSALSEVRRIIYDLRPMALDDLGLVPTLKKYLQTTEEYNKGVHISFVHIGEEIRLPSRMEAAVFRLVQESVQNALKHAEARHIDVKMEVTCDHLLVSVKDDGKGFDPSVKKENAFGLIGMRERVELLGGTLDIRSKIGSGTTVFIRVPLDRSTDKTNKEERKR", "soluble on expression in E. coli": "not soluble"}, {"sequence": "MLGAMSLRLSEFRETNLLDKILFGVLSPHEIRQLAKVTVVRGDLYEADGTPVSGGLRDPHFGAIEPGERCPVCGNSREECPGHFGKIELARPVLIPHYTDYVYKILQATCRVCGRITLPEEKIKYYRLIFRRLRGKWPQLAKTFATMVVKEAAQATQCPHCGKPQYKVVYIRPFHFYEKKPEGDVKLTPSEIRERLEKTGSEIEILGVHPERSRPEWMVATVLIVPPLAVRPSITLETGLRSEDDLTHALAEIVRQNEKLRNVIVTNAPETLIEENWMVLQEMVAAYIDNELPGARRLTHRRKRYLKTLAQRLKGKDGRIRGNLSGKRVNYSARTVISPDPYISINEVGVPEEIAKTLTIAMRVTPYNLEEARRYVLNGPDKWPGALFVYKASERKKYDLRFFKDYEKLAESLEPGDVVERHLINGDIVLFNRQPSLHRMSIMGHIVRVMPGKTFRLNLLVCPPYNADFDGDEMNLHVPRLEEAQAEAREIMLVEKHILTPRYGGPIIGGRQDYVSGAYLLTVKTRLFTKEEVERLLSVAGYKGDLPEPAILKPEPLWTGKQLASIFLPEDLSFKGKSKTNAGDLACSDELCLHDSYIVITNGKLLEGVLDKKAIGAEEPNNLLHIIALEYGNSKARQLLDSFYRMFIRMLELRGLTISLHDIDLPDRAKQEIEELIREYKGRVYSIIEEYRKGTLEPIPGRSLEESLEIKIMEVLDELRKRVQEVASNNLDPFNDVFVMARTGARGSDVNISQMAAMLGQQAVRGRRIRRGLRNRVLAHFKENDIEPEAWGFVRSSFRKGLRPTEVFFHAAAGREGLVDTAVKTSQSGYMQRRLINALQDIVVTYDGTVRDLYGNLIQLKYGEDGVDPMKTYHGKPVDVKRIIQRVKASKAETV", "soluble on expression in E. coli": "soluble"}, {"sequence": "MKILTQSLPNSSAAYLQGYLRENTDSSVTYPTVIIVPGGSYTHIPERQAEDLALAWVARGYQAFFLRYSFISEKTPLLPNPVIELAQSVAAIHAHATTWHVDLRRLAVAGFSVGGHITALFNDWWSEADFNQQAHTTPEQLKVQAVILGYPVISPDLGFPTDAATLATWSTTPKKIAADQHVTAANAPTFIWVTANDPLVPVQNALAYAQASLTHGVDTELHVFHNGPHGLALANSVTAWKPGTDLPHVAHWLDLATEWLQDLKLEHHHHHH", "soluble on expression in E. coli": "soluble"}, {"sequence": "MAKTLKTLYQCTECGGTSPKWQGKCPHCGEWNTLQESLAAPEPKNARFQSWAADTSTVQSLSAVTATEVPRNPTGMGELDRVLGGGLVDGAVILLGGDPGIGKSTLLLQTIAKMAQSRKVLYVSGEESAQQVALRAQRLELPTDGVNLLAEIRMEAIQAALKQHQPEVVVIDSIQTMYSDQITSAPGSVSQVRECAAQLTRMAKQMGIAMILVGHVTKDGAIAGPRVLEHMVDTVLYFEGDQHSNYRMIRAIKNRFGAANELGVFAMTENGLKGVSNPSAIFLASYRDDTPGSCVLVTQEGSRPLLVEIQALVDDAHGFTPKRLTVGLEQNRLAMLLAVLNRHGGIACFDQDVFLNAVGGV", "soluble on expression in E. coli": "not soluble"}, {"sequence": "TRSVKSCVGKEFCRFGTQYTTRLGIRLEKTFEYIDTPHKFKMGVSGCPRSCVESGVKDFGIISVENGFQIYIGGNGGTEVEKAEFLTTVETEDEVIKLCGALMQYYRETGIYAERTAPWLRRLGFENVKEVLLD", "soluble on expression in E. coli": "not soluble"}, {"sequence": "PDQCKPPQVTCRSATCAQVNWEVPLSNGTDVTEYRLEWGGVEGSMQICYCGPGLSYEIKGLSPATTYYCRVQALSVVGAGPFSEVVACVTPPS", "soluble on expression in E. coli": "soluble"}, {"sequence": "AAIAEKDLGNAAYKQKDFEKAHVHYDKAIELDPSNITFYNNKAAVYFEEKKFAECVQFCEKAVEVGRETRADYKLIAKAMSRAGNAFQKQNDLSLAVQWFHRSLSEFRDPELVKKVKELEKQLKAAERLAYINPELAQEEKNKGNEYFKKGDYPTAMRHYNEAVKRDPENAILYSNRAACLTKLMEFQRALDDCDTCIRLDSKFIKGYIRKAACLVAMREWSKAQRAYEDALQVDPSNEEAREGVRNCLRSNDEDPEKAKERSLADPEVQEILRDPGMRMILEQMSNDPGAVREHLKNPEIFQKLMKLRD", "soluble on expression in E. coli": "not soluble"}, {"sequence": "MLIRQAGPADNAQLLDFQQRHAMRGSMPLRFDRSPDYFALHHCHAADHRTWIAQSPEGELRGSASLVVRDGYLQGSAEPIAYLGDLRLMPDRRLSRSWMAEVQTRLADLSLQTGAQHAYCCIIRDNPLAIQSLLGRRRANPLKLAHWRGYSNVSVYGQRGLSSAPRTHAGVRVVRAEPRHLDALRAFLDSESSRQSFGCVFSETEFERRISHWPDFAIGSFLLAVDERENLLGCVAPWDAGKIKRIVVEQMPVAQQLLRMGYNAVAPLAGRPGIASPGNPLRDIYLTHLQVRQRDPEVFAALLDVAWAQVRKDYSLMQLCLYDQDPLWLAMRRYRSVSLPMDLYTAPCGSNTPVFTETCAAGVPGFEIYLV", "soluble on expression in E. coli": "not soluble"}, {"sequence": "FGIIRGLMMHVTLVEINVHDDKVEQFIDVFRQNHLGSIKEPGNLRFDVLQDPQVLTRFYIYEAYVDEQAVAFHKTTPHYKTCVEQLEPLMTGPRTKKVFMGL", "soluble on expression in E. coli": "not soluble"}, {"sequence": "MGSDKIHHHHHHMVQEIAQEIIRSARKKGTQDIYFVPKLDAYELHMRVGDERCKIGSYDFEKFAAVISHFKFVAGMNVGEKRRSQLGSCDYAYDHKIASLRLSTVGDYRGHESLVIRLLHDEEQDLHFWFQDIEELGKQYRQRGLYLFAGPVGSGKTTLMHELSKSLFKGQQVMSIEDPVEIKQDDMLQLQLNEAIGLTYENLIKLSLRHRPDLLIIGEIRDSETARAVVRASLTGATVFSTIHAKSIRGVYERLLELGVSEEELAVVLQGVCYQRLIGGGGIVDFASRDYQEHQAAKWNEQIDQLLKDGHITSLQAETEKISYS", "soluble on expression in E. coli": "not soluble"}, {"sequence": "MGSDKIHHHHHHMSIIFDKNLGILEKTIEEIQNEKKHILRTKYGINIKDNSIYDIINFPSSSIDKQISEVLKELFSKIKENGSYFNALKEDLSTPKSSTYEAIRKALLNVEGVKHINILSGPGTINLYLILQDDCFQDQEKKQIKIETKQNIWQAIYYTAPSGTVFKGDIEIEFLNKHNQKKTYKFSLGKKKYAYLKVVYKTEAKDAIYKEIDTQIRDIYNKILTDKYIEMGTSLRYQDFLAPVSIIRGIKELKIGICIKNDETKKITQLSDSDFTFNKDENTKEDEIIIFNTNKRLLINRE", "soluble on expression in E. coli": "not soluble"}, {"sequence": "MSIYEYFVKLHRYLLWQTKKIRALERRLHALEARLREMEAQPRTSIERIEYKFDQLKVETLEGTLNIGIAPPGAGGTIEDFAVEPVKTVIPKPEPVLMRPIQEKVAAYLNGEASETLKRLEQQYGRRLDDTYRQFILQDIARQTDERIRFYLQEKANHGYVPSGDRDEAVENEIFQKVKADIEQSLDAFLKHLPSKEGST", "soluble on expression in E. coli": "not soluble"}, {"sequence": "PSPSTEQSAKKVRKKAENAHNTPLLVLYGSNMGTAEGTARDLADIAMSKGFAPQVATLDSHAGNLPREGAVLIVTASYNGHPPDNAKQFVDWLDQASADEVKGVRYSVFGCGDKNWATTYQKVPAFIDETLAAKGAENIADRGEADASDDFEGTYEEWREHMWSDVAAYFNLDIENSEDNKSTLSLQFVDS", "soluble on expression in E. coli": "soluble"}, {"sequence": "MGSDKIHHHHHHMHFYTARQPILNRRQRVVAYELLFRDSYKNCFPVDVPDKVATAKLLVNSFLSMDIEDMTDGKPALINFPTSLLKEHLVHILPYKNLVIEVLETVEPNDDNFAILKQLFDSGYHLALDDFIYSPAWDRFLPLFKLIKIDIVATPLDTIAHILPKLKQKKTRLLAEKVETQADFLHAKALGFDYFQGYFFYKPEIVKGNEVELSQPFLMSIYTEVMKPSFSYRKLEAYFTQDMDLSYKLLRFVNSSYFSHVKDIISLKQAMIFLGENQLRKFVCLIVMAQLNPDKPQILIQNTMLRARLCEVIAKVMKLNKLADAAFLTGLFSTLDAILDKPMEKVLHSLPLAPEINNALLHQQGELAECLALAIAYMQGNWEFVSEFVSRNHINAGELTRRCNQVYLWLSEYQRSSSSKA", "soluble on expression in E. coli": "not soluble"}, {"sequence": "MSLEMGMNWTHTPLALSALMFAMAAQATPNQATDAVAPEQATGFEHKSLVKAKNWMVTAANPLASEAGASILRQGGNAIDAMVTTQLMLGLVEPQSSGIGGGSFLVYWDAKKKALTTFDGRETAPLNATPELFLDSTGQPMKFYDAVVGGRSVGTPGTVKLLWETHRQYGKLEWARLIEPVAKLAEQGFEVSPRLAALIAEDKERLGRFPATKAYFFDAQGEPLTAGTLLKNPDYAATLRAIAQQGASAFYQGDIAKDIIATVQNAPGNPGVLAQQDFDTYQVKQRAPVCAAYQSYQVCGMGLPSSGGLTVGQILALTEQYDLKGWGAQDVKSWQVLGDASQLAFADRGLYMADQDYVPVPTQGLLDKTYLAERAKLIQPGKALTSAPAGNPPWHHAQLRSPDQSIELPSTSHFNIVDREGNVVSFTTSIENAFGSRLLVRGFLLNNELTDFSFATQSEGRPIANRLEPGKRPRSSMAPTIVLQDNQPYLAIGSPGGSRIIGYVAQAIVAHTQWGMNIQAAINQPHVLNRFGEIELEQGTSAEQFKPALESLGAKVGIKELNSGLHAIRITAQGLEGAADPRREGVAIGEGHHHHHH", "soluble on expression in E. coli": "not soluble"}, {"sequence": "MKKVAIVGLGWLGMPLAMSLSARGWQVTGSKTTQDGVEAARMSGIDSYLLRMEPELVCDSDDLDALMDADALVITLPARRSGPGDEFYLQAVQELVDSALAHRIPRIIFTSSTSVYGDAQGTVKETTPRNPVTNSGRVLEELEDWLHNLPGTSVDILRLAGLVGPGRHPGRFFAGKTAPDGEHGVNLVHLEDVIGAITLLLQAPKGGHIYNICAPAHPARNVFYPQMARLLGLEPPQFRNSLDSGKGKIIDGSRICNELGFEYQYPDPLVMPLE", "soluble on expression in E. coli": "soluble"}, {"sequence": "MSLGKGVRDPGSDGSLRRKELAMIKVEDMMTRHPHTLLRTHTLNDAKHLMEALDIRHVPIVDANKKLLGIVSQRDLLAAQESSLQRSAQGDSLAFETPLFEVMHTDVTSVAPQAGLKESAIYMQKHKIGCLPVVAKDVLVGIITDSDFVTIAINLLELQEESEPDELDEEQEGGSHHHHHH", "soluble on expression in E. coli": "soluble"}]}]}
